Source: publication PMC8192788, “Macropinocytosis requires Gal-3 in a subset of patient-derived glioblastoma stem cells” (Communications Biology, 2021)

Molecular target: T1, purified human Gal-3 (Biolegend) (human, UniProt P17931 1-250)
T1 construct: purified human Galectin-3 bought from Biolegend; No catalogue number printed; source: bought: Biolegend
Experiment: cell-free binding assay (coated plate, antibody detection by fluorescence); 96-well plates coated with purified human Gal-3 (0.5 µg in 100 µl, 4 °C overnight), blocked with 50 mg/mL BSA; recombinant human RAB10 0.25 to 0.5 µg/well, 4 h at 30 °C; bound RAB10 detected with rabbit anti-RAB10 and AF488 secondary antibody
Details: both partners purified

T1 sequence (P17931 whole entry): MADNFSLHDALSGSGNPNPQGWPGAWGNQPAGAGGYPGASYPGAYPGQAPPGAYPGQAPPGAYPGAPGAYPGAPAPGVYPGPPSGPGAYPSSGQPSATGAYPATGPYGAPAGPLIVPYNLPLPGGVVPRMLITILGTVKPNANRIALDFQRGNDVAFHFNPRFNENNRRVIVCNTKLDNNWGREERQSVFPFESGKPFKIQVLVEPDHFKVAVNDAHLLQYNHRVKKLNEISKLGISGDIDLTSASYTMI

B1: recombinant human RAB10 (Prospec PRO-1361) (natural protein, UniProt P61026 1-200, looked up)
chain: MAKKTYDLLFKLLLIGDSGVGKTCVLFRFSDDAFNTTFISTIGIDFKIKTVELQGKKIKLQIWDTAGQERFHTITTSYYRGAMGIMLVYDITNGKSFENISKWLRNIDEHANEDVERMLLGNKCDMDDKRVVPKGKGEQIAREHGIRFFETSAKANINIEKAFLTLAEDILRKTPVKEPNSENVDISSGGGVTGWKSKCC
notes: recombinant human RAB10 bought from Prospec; The vendor's data sheet for PRO-1361 should give limits and any His tag; source: bought: Prospec
B1: binds.
